The target in assay [1] is TcdB2-TccC3 from Photorhabdus luminescens (Pl-TcdB2-TccC3) (P. luminescens) (UniProt Q8GF99). Description: BLI.
Assay [2] addresses XptA1 from Xenorhabdus nematophila (Xn-XptA1) (X. nematophila). The assay is described as follows: cryo-EM structure.
The target of assay [3] is TcdA4 from Photorhabdus luminescens (Pl-TcdA4) (P. luminescens) (UniProt Q8GF92). Description: cryo-EM structure.
The target of assay [4] is TcdA4 from Morganella morganii (Mm-TcdA4) (M. morganii). Description: cryo-EM structure.
The target in assay [5] is TcdA1 from Photorhabdus luminescens (Pl-TcdA1) (P. luminescens) (UniProt Q9RN43). The assay is described as follows: cryo-EM structure.

Kd and stoichiometry N data for four substances are collected here from publication doi:10.1101/596536.

The substance “XptA1 from Xenorhabdus nematophila (Xn-XptA1) (natural protein)” gave a Kd in assay [1] of 1.99 nM. Further, the stoichiometry N in assay [2] was determined as 5.

For the substance “TcdA4 from Photorhabdus luminescens (Pl-TcdA4), Q8GF92 1-2381”, the stoichiometry N in assay [3] turned out to be 5.

In assay [1], “TcdA4 from Morganella morganii (Mm-TcdA4) (natural protein)” showed a Kd of 11.3 nM. For the same substance, the stoichiometry N in assay [4] worked out at 5.

Substance “TcdA1 from Photorhabdus luminescens (Pl-TcdA1), Q9RN43 1-2516” gave a Kd in assay [1] of 0.63 nM. In assay [5], this substance came in with a stoichiometry N of 5.
